The values below come from the Human Domainome abundance scans (Beltran et al. 2025).

± gives the uncertainty stated by the source.

B1: Chromodomain-helicase-DNA-binding protein 5, residues 411 to 463; numbered along this chain, Q8TDI0 (parent)
chain: EEDDHMEFCRVCKDGGELLCCDACPSSYHLHCLNPPLPEIPNGEWLCPRCTCP

In the data set the parent is B1. Nature of the data set: abundance fitness (aPCA) (normalised: wild type 0, dead -1); higher = more abundant; growth selection in yeast, the domain comes from the species named. The note with it: Homo sapiens.
Consider E17A, for which the abundance fitness is -0.063 ± 0.043.

In the case of E17Y, the abundance fitness was -0.272 ± 0.059.

With E17S, the abundance fitness was -0.21 ± 0.045.

Regarding E17H, the abundance fitness was -0.138 ± 0.041.

E17G: the abundance fitness is -0.171 ± 0.068.

Regarding E17R, the abundance fitness was -0.187 ± 0.053.

On to E17T, for which the abundance fitness was 0.03 ± 0.055.

In the case of E17Q, the abundance fitness was 0.032 ± 0.068.

Turning to Y28A, the abundance fitness is -0.466 ± 0.066.

For R10I, the abundance fitness is -0.089 ± 0.086.

As to R10Y, the abundance fitness came to 0.037 ± 0.061.

For the variant R10S, the abundance fitness was -0.089 ± 0.055.

Consider R10V, for which the abundance fitness was -0.25 ± 0.065.

With R10K, the abundance fitness is -0.218 ± 0.12.

Take R10W: the abundance fitness was -0.212 ± 0.086.

For the variant R10P, the abundance fitness is -0.413 ± 0.088.

In the case of R10C, the abundance fitness was -0.296 ± 0.087.

Turning to R10G, the abundance fitness is -0.035 ± 0.053.

R10D: the abundance fitness was -0.119 ± 0.053.

For R10L, the abundance fitness was -0.06 ± 0.056.

Consider R10T, for which the abundance fitness worked out at 0.012 ± 0.086.

For R10N, the abundance fitness amounted to 0.026 ± 0.11.

As for R10H, the abundance fitness was -0.028 ± 0.12.

Turning to R10A, the abundance fitness is -0.219 ± 0.075.

R10Q: the abundance fitness is -0.106 ± 0.11.

As to R10F, the abundance fitness was found to be 0.178 ± 0.12.

Turning to C20T, the abundance fitness turned out to be 0.123 ± 0.073.

C20Y: the abundance fitness was determined as 0.125 ± 0.092.

As to C20Q, the abundance fitness amounted to 0.031 ± 0.047.

Take C20M: the abundance fitness was -0.017 ± 0.081.

Turning to C20I, the abundance fitness was 0.073 ± 0.06.

For C20S, the abundance fitness is -0.008 ± 0.055.

For C20D, the abundance fitness was 0.217 ± 0.08.

C20A: the abundance fitness turned out to be 0.071 ± 0.066.

In the case of C20E, the abundance fitness is -0.049 ± 0.079.

As for C20G, the abundance fitness turned out to be 0.116 ± 0.052.

As for C20L, the abundance fitness was determined as 0.006 ± 0.047.

As to C20W, the abundance fitness is -0.029 ± 0.069.

Regarding C20F, the abundance fitness is -0.05 ± 0.08.

C20H: the abundance fitness is -0.065 ± 0.094.

Turning to C20P, the abundance fitness was 0.146 ± 0.073.

In the case of C20V, the abundance fitness was 0.007 ± 0.052.

Consider C20K, for which the abundance fitness was found to be 0.01 ± 0.083.

With C9F, the abundance fitness was -0.715 ± 0.18.

As to C9D, the abundance fitness was -0.595 ± 0.1.

As for C9Y, the abundance fitness is -0.977 ± 0.068.

For C9I, the abundance fitness was -1.05 ± 0.25.

C9T: the abundance fitness is -0.56 ± 0.074.

Consider C9S, for which the abundance fitness is -0.807 ± 0.072.

As to C9Q, the abundance fitness was -0.771 ± 0.087.

Take C9K: the abundance fitness was -0.438 ± 0.074.

Turning to C9G, the abundance fitness is -0.687 ± 0.068.

In the case of C9L, the abundance fitness is -0.861 ± 0.078.

Take C9H: the abundance fitness is -1.5 ± 0.4.

As to C9N, the abundance fitness was -0.735 ± 0.13.

For the variant C9R, the abundance fitness was -0.629 ± 0.062.

As to C9P, the abundance fitness is -0.94 ± 0.13.

Consider C9V, for which the abundance fitness was -1.09 ± 0.069.

Take L19P: the abundance fitness was -1.22 ± 0.38.

For L19V, the abundance fitness is -0.031 ± 0.077.

For L19W, the abundance fitness was -0.288 ± 0.089.

For the variant L19C, the abundance fitness is -0.317 ± 0.089.

L19R: the abundance fitness is -0.078 ± 0.06.

With L19Y, the abundance fitness was 0.099 ± 0.14.

Turning to L19Q, the abundance fitness is -0.155 ± 0.12.

As to L19F, the abundance fitness was 0.001 ± 0.058.

For L19S, the abundance fitness was -0.537 ± 0.15.

Take L19G: the abundance fitness was -0.571 ± 0.059.

On to L19I, for which the abundance fitness is 0.26 ± 0.098.

For L19E, the abundance fitness was -0.346 ± 0.12.

As for L19T, the abundance fitness was -0.169 ± 0.11.

Turning to L19K, the abundance fitness was -0.361 ± 0.14.

As to C24D, the abundance fitness is -0.703 ± 0.16.

On to C24L, for which the abundance fitness was -1.15 ± 0.15.

Consider C24N, for which the abundance fitness is -0.904 ± 0.43.

On to C24Q, for which the abundance fitness is -1.11 ± 0.28.

On to C24T, for which the abundance fitness was -0.464 ± 0.12.

As for C24E, the abundance fitness is -0.564 ± 0.11.

As to C24K, the abundance fitness was -0.437 ± 0.12.

Turning to C24R, the abundance fitness is -0.392 ± 0.085.

For the variant C24P, the abundance fitness is -0.791 ± 0.24.

Turning to C24G, the abundance fitness was -0.723 ± 0.1.

As for C24H, the abundance fitness was determined as 0.139 ± 0.13.

For the variant C24M, the abundance fitness is -0.781 ± 0.1.

Turning to C24V, the abundance fitness was -0.589 ± 0.072.

On to C24I, for which the abundance fitness is -0.886 ± 0.3.

For C24Y, the abundance fitness is -0.606 ± 0.14.

As for C24A, the abundance fitness is -0.637 ± 0.12.

As to S27F, the abundance fitness worked out at 0.152 ± 0.092.

On to S27N, for which the abundance fitness came out at 0.02 ± 0.06.

As to S27A, the abundance fitness is 0.07 ± 0.073.

Turning to S27D, the abundance fitness is -0.3 ± 0.073.

S27M: the abundance fitness is -0.052 ± 0.078.

As to S27R, the abundance fitness is -0.056 ± 0.041.

In the case of S27E, the abundance fitness is -0.212 ± 0.076.

Regarding S27C, the abundance fitness was -0.035 ± 0.082.

For the variant S27P, the abundance fitness was -0.47 ± 0.064.

For S27G, the abundance fitness is -0.168 ± 0.061.

S27I: the abundance fitness was -0.345 ± 0.12.

As to S27Q, the abundance fitness was -0.064 ± 0.068.

As for S27L, the abundance fitness is -0.039 ± 0.054.

Regarding S27H, the abundance fitness worked out at 0.026 ± 0.064.

As to L18I, the abundance fitness is 0.035 ± 0.14.

With L18M, the abundance fitness was -0.019 ± 0.1.

As for L18R, the abundance fitness was -0.084 ± 0.062.

On to L18Q, for which the abundance fitness is -0.415 ± 0.15.

Regarding L18A, the abundance fitness is -0.769 ± 0.15.

For L18F, the abundance fitness was -0.969 ± 0.24.

On to L18C, for which the abundance fitness was -0.288 ± 0.14.

As for L18W, the abundance fitness is -0.972 ± 0.17.

For the variant L18P, the abundance fitness is -0.91 ± 0.29.

On to L18G, for which the abundance fitness was -0.655 ± 0.13.

As for L18S, the abundance fitness is -0.754 ± 0.13.

For the variant L18T, the abundance fitness was -0.076 ± 0.099.

L18N: the abundance fitness is -0.932 ± 0.49.

Turning to L18V, the abundance fitness was 0.065 ± 0.082.

Consider L18D, for which the abundance fitness is -0.972 ± 0.32.

As to L18E, the abundance fitness was -0.812 ± 0.25.

As to D14C, the abundance fitness is -0.291 ± 0.083.

Regarding D14V, the abundance fitness was -0.157 ± 0.12.

As to D14L, the abundance fitness was -0.153 ± 0.053.

With D14Q, the abundance fitness was -0.2 ± 0.18.

For the variant D14P, the abundance fitness is -0.984 ± 0.17.

With D14K, the abundance fitness was -0.133 ± 0.1.

On to D14N, for which the abundance fitness is -0.061 ± 0.048.

As for D14Y, the abundance fitness was -0.452 ± 0.15.

Take D14G: the abundance fitness amounted to 0.086 ± 0.085.

For D14S, the abundance fitness was -0.17 ± 0.073.

On to D14H, for which the abundance fitness is -0.037 ± 0.11.

With D14I, the abundance fitness was -0.519 ± 0.15.

Turning to D14W, the abundance fitness was -0.232 ± 0.096.

For D14E, the abundance fitness turned out to be 0.059 ± 0.13.

For D14M, the abundance fitness was -0.051 ± 0.09.

In the case of V11S, the abundance fitness was -0.118 ± 0.058.

With V11L, the abundance fitness is -0.1 ± 0.053.

With V11R, the abundance fitness was -0.113 ± 0.058.

On to V11N, for which the abundance fitness is -0.131 ± 0.15.

V11D: the abundance fitness is 0.062 ± 0.081.

Turning to V11Y, the abundance fitness was -0.056 ± 0.076.

As for V11A, the abundance fitness was -0.276 ± 0.058.

In the case of V11Q, the abundance fitness was -0.012 ± 0.1.

As for V11C, the abundance fitness was -0.275 ± 0.11.

Consider V11M, for which the abundance fitness is -0.008 ± 0.058.

With V11H, the abundance fitness came out at 0.033 ± 0.054.

As to V11I, the abundance fitness stood at 0.069 ± 0.061.

Consider V11F, for which the abundance fitness was -0.111 ± 0.1.

With V11W, the abundance fitness is -0.193 ± 0.052.

In the case of V11G, the abundance fitness was 0.046 ± 0.053.

Regarding V11E, the abundance fitness was determined as 0.18 ± 0.076.

Consider V11K, for which the abundance fitness worked out at 0.122 ± 0.09.

Turning to V11P, the abundance fitness was -0.795 ± 0.12.

Turning to G15V, the abundance fitness is -0.061 ± 0.092.

For the variant G15M, the abundance fitness is -0.165 ± 0.12.

In the case of G15T, the abundance fitness was 0.036 ± 0.062.

Consider G15W, for which the abundance fitness is -0.087 ± 0.09.

G15K: the abundance fitness came out at 0.191 ± 0.097.

In the case of G15I, the abundance fitness is -0.112 ± 0.14.

Regarding G15C, the abundance fitness is -0.517 ± 0.12.

With G15N, the abundance fitness is -0.359 ± 0.12.

Turning to G15D, the abundance fitness stood at 0.098 ± 0.095.

For G15R, the abundance fitness amounted to 0.087 ± 0.058.

Regarding G15E, the abundance fitness is -0.224 ± 0.13.

As for G15F, the abundance fitness stood at 0.079 ± 0.12.

Turning to G15Q, the abundance fitness is 0.047 ± 0.1.

With G15A, the abundance fitness worked out at 0.07 ± 0.084.

For the variant G15L, the abundance fitness is -0.151 ± 0.064.

For G15H, the abundance fitness was -0.159 ± 0.11.
